{"source": "paper PMC5180188", "about": "“Structural Insights on PHA Binding Protein PhaP from Aeromonas hydrophila” (Scientific Reports, 2016)", "proteins": {"B1": {"name": "PhaPAh (PHA binding protein PhaP, a phasin, from Aeromonas hydrophila strain 4AK4) (natural protein, UniProt O32470 1-116, looked up)", "chain": "MNMDVIKSFTEQMQGFAAPLTRYNQLLASNIEQLTRLQLASANAYAELGLNQLQAVSKVQDTQSLAALGTVQLETASQLSRQMLDDIQKLSALGQQFKEELDVLTADGIKKSTGKA", "notes": "PhaP (phasin) of Aeromonas hydrophila strain 4AK4, UniProtKB O32470, residues 1-116; called full-length in the methods; Cloned in pGEX-6P-1; residues left by PreScission cleavage are not described; Phasing used a (Ta6Br12)2+ soaked crystal and a selenomethionine-labelled crystal; the final model is of the native crystal; also called wild type; wild-type PhaPAh; not shown: GST, N-terminal, cleaved"}}, "target": "the molecule itself", "assay": "SEC + other: dynamic light scattering; Superdex 200 in 50 mM Tris pH 8.0, 500 mM NaCl; DLS at 0.5 mg/ml in aqueous buffer"}
{"protein": "B1", "values": [{"measurement": "stoichiometry N", "result": 4}]}
